In patent publication US20260092124A1:

Assays:
human CD40 (human) [1] = target: human CD40 (human) (UniProt P25942); test: cell binding (GpL luciferase, HT1080-CD40); mean, n=5
human CD40 (human) [2] = target: human CD40 (human) (UniProt P25942); test: cell binding (GpL luciferase, HT1080-CD40); single representative experiment

Chain of human CD40 (human) (P25942 21-277): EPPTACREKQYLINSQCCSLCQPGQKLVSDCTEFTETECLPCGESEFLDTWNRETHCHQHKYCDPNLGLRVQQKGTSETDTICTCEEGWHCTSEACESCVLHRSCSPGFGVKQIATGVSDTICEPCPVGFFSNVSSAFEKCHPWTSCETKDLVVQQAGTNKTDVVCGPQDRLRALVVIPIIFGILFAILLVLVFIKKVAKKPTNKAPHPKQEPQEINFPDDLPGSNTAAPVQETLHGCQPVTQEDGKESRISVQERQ

Row | Kd (human CD40 (human) [1]) [µg/mL] | Kd (human CD40 (human) [2]) [µg/mL] | Substance
1 | 0.334 | 0.35 | CP-870,893 IgG1 variant
2 | 0.086 | 0.08 | G28.5 IgG1 variant
3 | 0.274 | 0.26 | APX005M IgG1 variant
